Drawing on article PMC4546058, this text covers stoichiometry N, Molecular Activity (2-phosphoglycerate to phosphoenolpyruvate, 20°C), taken as the amount of octamer and total amount of octamer estimated from activity assays, as percent of the concentration of the Str enolase DB for ten substances.

For experiment [1], the target named is Str enolase 137/363–1 (ΔK435) (Streptococcus pyogenes) (UniProt P69949). The experiment is described as follows: AUC; sedimentation velocity, Beckman XL-I, 20°C, 30 000-37 000 RPM, TME-SO4 (50 mM Tris, 1 mM MgSO4, 0.1 mM EDTA, 44 mN H2SO4, pH 7.4); c(s) in Sedfit; octamer to 8 monomers.
For experiment [2] the target is unchanged.
Experiment [3] addresses Str enolase 137/363–2 (ΔK434-K435) (Streptococcus pyogenes) (UniProt P69949). The experiment is described as follows: AUC; sedimentation velocity, Beckman XL-I, 20°C, 30 000-37 000 RPM, TME-SO4 (50 mM Tris, 1 mM MgSO4, 0.1 mM EDTA, 44 mN H2SO4, pH 7.4); c(s) in Sedfit; octamer to 8 monomers.
The target is the same in experiment [4].
Experiment [5] addresses Str enolase 137/363–3 (ΔL433-K435) (Streptococcus pyogenes) (UniProt P69949). The experiment is described as follows: AUC; sedimentation velocity, Beckman XL-I, 20°C, 30 000-37 000 RPM, TME-SO4 (50 mM Tris, 1 mM MgSO4, 0.1 mM EDTA, 44 mN H2SO4, pH 7.4); c(s) in Sedfit; octamer to 8 monomers.
The target is the same in experiment [6].
For experiment [7], the target named is Str enolase 137/363–4 (ΔN432-K435) (Streptococcus pyogenes) (UniProt P69949). The experiment is described as follows: AUC; sedimentation velocity, Beckman XL-I, 20°C, 30 000-37 000 RPM, TME-SO4 (50 mM Tris, 1 mM MgSO4, 0.1 mM EDTA, 44 mN H2SO4, pH 7.4); c(s) in Sedfit; octamer to 8 monomers.
Experiment [8] has the same target.
In experiment [9] the target is Str enolase 137/363–5 (ΔY431-K435) (Streptococcus pyogenes) (UniProt P69949). The experiment is described as follows: AUC; sedimentation velocity, Beckman XL-I, 20°C, 30 000-37 000 RPM, TME-SO4 (50 mM Tris, 1 mM MgSO4, 0.1 mM EDTA, 44 mN H2SO4, pH 7.4); c(s) in Sedfit; octamer to 8 monomers.
The target is the same in experiment [10].
In experiment [11] the target is Str enolase 137/363–6 (ΔF430-K435) (Streptococcus pyogenes) (UniProt P69949).
Experiment [12] shares this target. The source holds these as a separate data set.
Experiment [13] has as its target Str enolase 137/363–8 (ΔK428-K435) (Streptococcus pyogenes) (UniProt P69949).
Experiment [14] shares this target. The source holds these as a separate data set.
Experiment [15] has as its target Str enolase DB E363G (Streptococcus pyogenes) (UniProt P69949). The experiment is described as follows: AUC; sedimentation velocity, Beckman XL-I, 20°C, 30 000-37 000 RPM, TME-SO4 (50 mM Tris, 1 mM MgSO4, 0.1 mM EDTA, 44 mN H2SO4, pH 7.4); c(s) in Sedfit; octamer to 8 monomers.
Experiment [16] has the same target.
In experiment [17] the target is Str enolase DB F137L (Streptococcus pyogenes) (UniProt P69949). The experiment is described as follows: AUC; sedimentation velocity, Beckman XL-I, 20°C, 30 000-37 000 RPM, TME-SO4 (50 mM Tris, 1 mM MgSO4, 0.1 mM EDTA, 44 mN H2SO4, pH 7.4); c(s) in Sedfit; octamer to 8 monomers.
The target is the same in experiment [18].
For experiment [19], the target named is enolase from Streptococcus pyogenes F137L/E363G (Streptococcus pyogenes) (UniProt P69949). The experiment is described as follows: AUC; sedimentation velocity, Beckman XL-I, 20°C, 30 000-37 000 RPM, TME-SO4 (50 mM Tris, 1 mM MgSO4, 0.1 mM EDTA, 44 mN H2SO4, pH 7.4); c(s) in Sedfit; octamer to 8 monomers.
For experiment [20] the target is unchanged.

For orientation: stoichiometry N means the number of molecules, sites or subunits per partner or assembly. Turning to “Str enolase 137/363–1 (ΔK435) (from UniProt P69949 1-434) (enzyme)”, the stoichiometry N in experiment [1] was 8. Further, in experiment [2], the Molecular Activity (2-phosphoglycerate to phosphoenolpyruvate, 20°C), taken as the amount of octamer came to 4040 min⁻¹.
For the substance “Str enolase 137/363–2 (ΔK434-K435) (from UniProt P69949 1-433) (enzyme)”, the stoichiometry N in [3] worked out at 8. Also, in experiment [4], the Molecular Activity (2-phosphoglycerate to phosphoenolpyruvate, 20°C), taken as the amount of octamer was determined as 1730 min⁻¹.
“Str enolase 137/363–3 (ΔL433-K435) (from UniProt P69949 1-432) (enzyme)” had a stoichiometry N in [5] of 8. Besides, in [6], the Molecular Activity (2-phosphoglycerate to phosphoenolpyruvate, 20°C), taken as the amount of octamer was 497 min⁻¹.
Substance “Str enolase 137/363–4 (ΔN432-K435) (from UniProt P69949 1-431) (enzyme)” returned a stoichiometry N in experiment [7] of 8. The Molecular Activity (2-phosphoglycerate to phosphoenolpyruvate, 20°C), taken as the amount of octamer in experiment [8] is 27 min⁻¹.
Regarding “Str enolase 137/363–5 (ΔY431-K435) (from UniProt P69949 1-430) (enzyme)”, in experiment [9], the stoichiometry N stood at 8. For the same substance, the Molecular Activity (2-phosphoglycerate to phosphoenolpyruvate, 20°C), taken as the amount of octamer in experiment [10] came out at 0.36 min⁻¹.
Regarding “Str enolase 137/363–6 (ΔF430-K435) (from UniProt P69949 1-429) (enzyme)”, the total amount of octamer estimated from activity assays, as percent of the concentration of the Str enolase DB in [11] was 0.0002%. In addition, in experiment [12], the Molecular Activity (2-phosphoglycerate to phosphoenolpyruvate, 20°C), taken as the amount of octamer was found to be 0.22 min⁻¹.
As to “Str enolase 137/363–8 (ΔK428-K435) (from UniProt P69949 1-427) (enzyme)”, in [13], the total amount of octamer estimated from activity assays, as percent of the concentration of the Str enolase DB is 0.0002%. Further, the Molecular Activity (2-phosphoglycerate to phosphoenolpyruvate, 20°C), taken as the amount of octamer in experiment [14] was 0.08 min⁻¹.
“Str enolase DB E363G (from UniProt P69949 1-435) (enzyme)” showed a stoichiometry N in [15] of 8. Further, the Molecular Activity (2-phosphoglycerate to phosphoenolpyruvate, 20°C), taken as the amount of octamer in experiment [16] is 8460 min⁻¹.
Substance “Str enolase DB F137L (from UniProt P69949 1-435) (enzyme)” had a stoichiometry N in experiment [17] of 8. This substance also gave a Molecular Activity (2-phosphoglycerate to phosphoenolpyruvate, 20°C), taken as the amount of octamer in experiment [18] of 7160 min⁻¹.
“enolase from Streptococcus pyogenes F137L/E363G (from UniProt P69949 1-435) (enzyme)”: the stoichiometry N in [19] was determined as 8. The same substance came in with a Molecular Activity (2-phosphoglycerate to phosphoenolpyruvate, 20°C), taken as the amount of octamer in experiment [20] of 5250 min⁻¹.
